Assays:
[1] = molecular target: T1, human Hsc70 (Homo sapiens, UniProt P11142); experiment: Percent complexation of peptides with Hsc70 by size exclusion chromatography; type: binding; conditions: 60 minutes at 30° C., SEC, 214 nm; for Percent complexation of peptides with Hsc70, 0.25:1: peptide:Hsc70 molar ratio 0.25:1; for Percent complexation of peptides with Hsc70, 0.5:1: peptide:Hsc70 molar ratio 0.5:1; for Percent complexation of peptides with Hsc70, 1:1: peptide:Hsc70 molar ratio 1:1; for Percent complexation of peptides with Hsc70, 2:1: peptide:Hsc70 molar ratio 2:1; for Percent complexation of peptides with Hsc70, 4:1: peptide:Hsc70 molar ratio 4:1
T1 construct: made in house; host or cells: E. coli
Protocol: In a separate experiment, further variants of the peptide NLLRLTG (SEQ ID NO: 70) were generated and the ability of these peptides to form a peptide-Hsc70 complex was analyzed. Peptides were again synthesized using standard Fmoc solid-phase chemical synthesis, as described above. Individual peptides were solubilized in pH adjusted water at a concentration of 250 μM, and spiked with polysorbate 20 to a final concentration of 0.1%. To form a peptide-Hsc70 complex, Hsc70 (1 mg/ml, 0.1% polysorbate) was mixed with peptide at peptide:Hsc70 molar ratios of, 0.25:1, 0.5:1, 1:1, 2:1, and 4:1, for 60 minutes at 30° C. Following incubation, samples were cooled for 5 minutes at room temperature and transferred to HPLC vials for analysis. To evaluate the quantity of the complex in the solution, 20 μl (10 μg) of the sample was loaded on a size exclusion chromatography column TSKgel SuperSW3000 (Tosoh Bioscience) at a flow rate of 0.2 ml/min with 1×PBS as a running buffer. The data was collected by measuring the absorbance at 214 nm.
The percent of Hsc70 bound to peptide was calculated by SEC. As shown in the SEC chromatogram depicted in FIG. 1, recombinant human heat shock cognate 71 kDa protein (Hsc70) appeared as monomer (M), dimer (D), trimer (T), and higher order high molecular weight (HMW) oligomeric species when subjected to SEC chromatography. Resolution and evaluation of the extent to which peptide-Hsc70 complex was formed with a given peptide or peptide mixture was complicated by the close elution of a complex of Hsc70 monomer with peptide (Msh). The peaks corresponding to monomer and complex overlap and were not fully resolved by conventional SEC media. In order to more accurately calculate the extent of complex formation, the following data analytical method was used. […] Peak area integrations of these protein species were well resolved from the complex and monomer. Further, the extent to which complex was formed appeared to be […] to the extent to which trimer and dimer were recruited to complex formation. Because of this observation, changes in trimer and dimer reflected the extent to which monomer was recruited to the formation of complex. Thus, the progression of changes in the level of trimer and dimer was used to calculate expected changes in the peak areas of overlapping complex and monomer species, and these calculated peak areas were used to calculate net formation of complex.
Terms used for various chromatographic fractions include: High Molecular Weight (HMW), Trimer and other mid-order oligomer (T), Dimer (D), Complex (C), Monomer shoulder (Msh), and Monomer (M) (see FIG. 1). Peak areas of the various fractions were extracted from SEC data and the percentage of peptide-Hsc70 complex formation was calculated using the following set of equations: % Complex=(AREAcomplex/AREATotal)×100 AREAcomplex=AREATotal−(AreaT+D+AreaMshx+AreaMx) AREATotal=AREAT+D,C,Msh,M+(AREAHDw-x−AREAHDW-0) AREAMshx=AREAMsh0×(AREA(T+D)x)/(AREA(T+D)0) AREAMx=AREAM0×(AREA(T+D)x)/(AREA(T+D)0)
AREATotal is the sum of total integrated peak areas from trimer/oligomer region through the monomer peak and excludes the initial HMW peak area but includes the excess increase of the HMW peak area that was observed when peptide was added. The HMW peak was excluded from the complexation calculation on the basis that it was aggregated protein that was not functional for complexation. This correction took into account AreaTotal factors in the minor increase in HMW area, adding it back to base total area used to calculate area of complex.
The foregoing method was applied to the SEC chromatogram for each complexation reaction by applying vertical lines to the chromatogram to produce HMW, T, C, D, and M segments (as shown in FIG. 1), calculating the area under the curve for of each of the indicated HMW, T, C, D, and M segments, and inputting the values into the equations described above.

[2] = molecular target: T2, Recombinant human Hsc70 (rhHsc70) (Homo sapiens, UniProt P11142); experiment: Complexation of rhHsc70 with PEP006 or a PEP006-containing polypeptide, size exclusion HPLC chromatogram; type: binding
T2 construct: made in house; host or cells: E. coli
Protocol: Briefly, PEP006 peptide was reconstituted in water for injection (WFI) to a concentration of 645 μM. Recombinant human Hsc70 (rhHsc70) was diluted at a concentration of 1.66 mg/mL. Both solutions were pre-warmed in a 37° C. incubator for 10 minutes, and were combined and incubated at 37° C. for 60 minutes. The final concentration of rhHsc70 was 1 mg/mL (about 14.1 μM), and the molar ratio of PEP006 to rhHsc70 was 0.25:1, 0.5:1, 1:1, 1.5:1, 2:1, 2.5:1, and 3:1. A negative control containing only rhHsc70 at 1 mg/mL was also prepared.
A quantity of 10 μg of each sample was injected neat in triplicate for resolution by size exclusion HPLC (Alliance HPLC, Waters Model #2695 Separations Module; Dual Wavelength UV Detector, Waters Model 2487) using a chromatography column TSKgel SuperSW3000 (Tosoh Bioscience, Catalog #18675). […] UV absorbance of PEP006 peptide and rhHsc70 protein was measured at the wavelengths of 214 nm and 280 nm. The absorbance data was processed by Waters Empower (V2) software. […]
FIG. 3B is a graph showing percent complexation of a polypeptide comprising PEP006 with HSC70 over a range of polypeptide:Hsc70 molar ratios from 0.125:1 to 4:1, as calculated from size exclusion chromatography traces similar to those in FIG. 3A, using the methods described Example 6.1.1. […]

T1 sequence (P11142 whole entry): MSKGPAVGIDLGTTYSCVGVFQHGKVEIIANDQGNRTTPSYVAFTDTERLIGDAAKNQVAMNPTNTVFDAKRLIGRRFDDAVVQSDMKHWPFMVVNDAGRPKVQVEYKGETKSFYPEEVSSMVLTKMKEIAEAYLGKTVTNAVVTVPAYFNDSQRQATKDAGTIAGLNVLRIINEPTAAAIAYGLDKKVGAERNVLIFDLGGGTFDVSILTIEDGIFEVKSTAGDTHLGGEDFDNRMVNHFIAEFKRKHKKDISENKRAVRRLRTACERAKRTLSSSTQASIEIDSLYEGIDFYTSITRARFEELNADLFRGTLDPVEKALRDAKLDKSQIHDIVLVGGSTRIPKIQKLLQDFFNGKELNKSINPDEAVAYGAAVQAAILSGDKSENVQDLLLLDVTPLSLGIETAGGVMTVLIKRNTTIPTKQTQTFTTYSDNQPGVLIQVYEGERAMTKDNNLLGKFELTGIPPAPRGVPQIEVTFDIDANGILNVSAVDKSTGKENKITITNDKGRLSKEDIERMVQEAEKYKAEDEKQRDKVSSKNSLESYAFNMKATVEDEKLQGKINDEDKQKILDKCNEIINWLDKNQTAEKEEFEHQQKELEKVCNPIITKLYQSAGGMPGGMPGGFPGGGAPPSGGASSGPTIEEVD
T2 sequence (P11142 whole entry): as above

Row | Sequence | Percent complexation of peptides with Hsc70, 0.25:1 [1] | Percent complexation of peptides with Hsc70, 0.5:1 [1] | Percent complexation of peptides with Hsc70, 1:1 [1] | Percent complexation of peptides with Hsc70, 2:1 [1] | Percent complexation of peptides with Hsc70, 4:1 [1] | column retention time of complexation products when rhHsc70 bound ([2]; PEP006:rhHsc70 molar ratios 0.25:1 to 3:1, 37° C. 60 minutes, FIG. 2) | column retention time of complexation products when rhHsc70 bound ([2]; polypeptide:Hsc70 molar ratios 0.125:1 to 4:1, FIG. 3A)
1 | FFRKFWLRLTW [PEP008] | 24.4% | 38.3% | 61.8% | 79.1% | 81.6% | – | –
2 | FFRKNFLRLTF [PEP027] | 19.1% | 49.0% | 77.0% | 85.6% | 90.0% | – | –
3 | FFRKNLLRLTG [PEP001, reference compound] | 23.4% | 44.7% | 68.1% | 82.5% | 90.1% | – | –
4 | FFRKNLLRLTW [PEP155] | 22.5% | 48.1% | 75.6% | 82.9% | 86.6% | – | –
5 | FFRKNLLRWTG [PEP004] | 15.4% | 29.0% | 46.8% | 62.5% | 75.3% | – | –
6 | FFRKNRLLLTG [PEP002] | 19.2% | 32.0% | 48.7% | 64.8% | 78.8% | – | –
7 | FFRKNRLWLTG [PEP005] | 16.0% | 32.7% | 54.8% | 67.6% | 77.6% | – | –
8 | FFRKNWIRITW [PEP013] | 25.6% | 48.3% | 69.6% | 81.9% | 87.7% | – | –
9 | FFRKNWLKLKW [PEP055] | 24.1% | 52.2% | 75.9% | 83.7% | 86.3% | – | –
10 | FFRKNWLKLRW [PEP057] | 24.9% | 50.0% | 72.2% | 82.8% | 88.3% | – | –
11 | FFRKNWLKLTW [PEP012] | 29.9% | 58.2% | 79.2% | 86.2% | 89.5% | – | –
12 | FFRKNWLKLWK [PEP058] | 22.7% | 43.5% | 66.5% | 78.8% | 83.9% | – | –
13 | FFRKNWLLLTW [PEP003] | 26.8% | 45.6% | 67.2% | 81.3% | 87.6% | – | –
14 | FFRKNWLRLFW [PEP010] | 19.1% | 42.2% | 64.9% | 79.3% | 86.5% | – | –
15 | FFRKNWLRLKW [PEP011] | 31.2% | 58.2% | 81.6% | 87.8% | 90.4% | – | –
16 | FFRKNWLRLLW [PEP009] | 32.8% | 63.5% | 81.0% | 85.3% | 89.0% | – | –
17 | FFRKNWLRLTW [PEP006] | 25.4% | 53.4% | 81.5% | 88.3% | 91.8% | column retention time became shorter | –
18 | FFRKQWLRLTW [PEP014] | 29.3% | 54.4% | 80.9% | 88.1% | 90.3% | – | –
19 | FRNWLRLTW [PEP028] | 24.0% | 46.4% | 75.6% | 84.1% | 87.5% | – | –
20 | LGVVRPRALHRELDLVDDSPTPGSPGSFFRKNWLRLTW [polypeptide comprising PEP006] | – | – | – | – | – | – | column retention time became shorter

Reference: patent US11065317B2, “Heat shock protein-binding peptide compositions and methods of use thereof” (Agenus Inc., priority 2018, dated 2021)
